In patent US20210206841A1 (RESEARCH INSTITUTE AT NATIONWIDE CHILDREN S HOSPITAL, published 2021):
Positions count from the first letter of the chain named.

T1: tip-chimeric peptide IhfA5-mIhfB4NTHI (nontypeable Haemophilus influenzae …)
T1 construct: also called IHF(NTHI) tip chimeric peptide; IHFNTHI tip chimeric peptide
T1 peptide: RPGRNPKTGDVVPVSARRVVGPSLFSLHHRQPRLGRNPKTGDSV

T2: native IHFNTHI (integration host factor of nontypeable Haemophilus influenzae) (nontypeable Haemophilus influenzae …, UniProt P43723 1-96; P43724 1-94)
T2 construct: also called NTHI IHF
T2 sequence 1: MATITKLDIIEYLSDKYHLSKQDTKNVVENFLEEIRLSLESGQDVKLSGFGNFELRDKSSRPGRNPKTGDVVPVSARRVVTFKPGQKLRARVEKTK
T2 sequence 2: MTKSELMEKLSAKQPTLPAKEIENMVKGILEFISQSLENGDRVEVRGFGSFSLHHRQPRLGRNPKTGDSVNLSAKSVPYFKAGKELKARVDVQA

T3: tail-chimeric peptide IhfA3-IhfB2NTHI (nontypeable Haemophilus influenzae …)
T3 construct: also called IHF(NTHI) tail chimeric peptide; IHFNTHI tail chimeric peptide
T3 peptide: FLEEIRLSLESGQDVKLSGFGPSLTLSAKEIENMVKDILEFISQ

B1: humanized anti-tip monoclonal antibody, heavy chain SEQ ID NO: 3 and light chain SEQ ID NO: 7 (antibody, V domains shown)
VH: EVKLVQSGAEVKKPGASVKVSCKASGFTFRTYAMSWVRQAPGQRLEWVATIGSDRRHTYYPDKFQGRVTITRDNAKNTLYMELSSLRSEDTAVYYCVGPYDGYYGEFDYWGQGTLVTVSS
VL: DVVMTQSPLSLPVTLGQPASISCRSSQSLLDSDGKTFLNWLQQRPGQSPRRLIYLVSKLDSGVPDRFSGSGSGTDFTLKISRVEAEDVGVYYCWQGTHFPYTFGQGTKLEIKR
notes: also called H10212 (1F8.F1 Humanized HC3) + L10210 (1F8.F1 Humanized LC1)
B2: humanized anti-tip monoclonal antibody, heavy chain SEQ ID NO: 3 and light chain SEQ ID NO: 9 (antibody, V domains shown)
VH: B1 VH
VL: DVVMTQSPDSLAVSLGERATINCKSSQSLLDSDGKTFLNWLQQKPGQPPKRLIYLVSKLDSGVPDRFSGSGSGTDFTLTISSLQAEDVAVYYCWQGTHFPYTFGQGTKLEIKR
notes: also called H10212 (1F8.F1 Humanized HC3) + L10212 (1F8.F1 Humanized LC3)
B3: humanized anti-tip monoclonal antibody, heavy chain SEQ ID NO: 1 and light chain SEQ ID NO: 7 (antibody, V domains shown)
VH: EVKLVESGGGLVQPGGSLRLSCAASGFTFRTYAMSWVRQAPGKGLEWVATIGSDRRHTYYPDSVKGRFTISRDNAKNTLYLQMNSLRAEDTAVYYCVGPYDGYYGEFDYWGQGTLVTVSS
VL: B1 VL
notes: also called HuTipMab; TP-21949
B4: humanized anti-tip monoclonal antibody, heavy chain SEQ ID NO: 2 and light chain SEQ ID NO: 7 (antibody, V domains shown)
VH: B3 VH with K3Q, A75S
VL: B1 VL
notes: also called H10211 (1F8.F1 Humanized HC2) + L10210 (1F8.F1 Humanized LC1)
B5: humanized anti-tip monoclonal antibody, heavy chain SEQ ID NO: 2 and light chain SEQ ID NO: 8 (antibody, V domains shown)
VH: B3 VH with K3Q, A75S
VL: B1 VL with L59R
notes: also called H10211 (1F8.F1 Humanized HC2) + L10211 (1F8.F1 Humanized LC2)
B6: humanized anti-tip monoclonal antibody, heavy chain SEQ ID NO: 1 and light chain SEQ ID NO: 8 (antibody, V domains shown)
VH: B3 VH
VL: B1 VL with L59R
notes: also called H10210 (1F8.F1 Humanized HC1) + L10211 (1F8.F1 Humanized LC2)
B7: humanized anti-tip monoclonal antibody, heavy chain SEQ ID NO: 1 and light chain SEQ ID NO: 9 (antibody, V domains shown)
VH: B3 VH
VL: B2 VL
notes: also called H10210 (1F8.F1 Humanized HC1) + L10212 (1F8.F1 Humanized LC3)
B8: humanized anti-tip monoclonal antibody, heavy chain SEQ ID NO: 2 and light chain SEQ ID NO: 9 (antibody, V domains shown)
VH: B3 VH with K3Q, A75S
VL: B2 VL
notes: also called H10211 (1F8.F1 Humanized HC2) + L10212 (1F8.F1 Humanized LC3)
B9: humanized anti-tail monoclonal antibody, heavy chain SEQ ID NO: 4 and light chain SEQ ID NO: 10 (antibody, V domains shown)
VH: EVQLVESGGGLVKPGGSLRLSCAASGFTFSRYGMSWVRQAPGKGLEWVATISSGGSYTYYTDSVKGRFTISRDNAKNSLYLQMNSLRAEDTAVYYCERHGGDGYWYFDVWGQGTMVTVSS
VL: DIQMTQSPSSLSASVGDRVTITCRASQDISNYLNWYQQKPGKAVKLLIYYTSRLHSGVPSRFSGSGSGTDYTLTISSLQPEDFATYFCQQGNPLRTFGGGTKVEIKR
notes: also called HuTailMab; TP-21958
B10: humanized anti-tail monoclonal antibody, heavy chain SEQ ID NO: 5 and light chain SEQ ID NO: 11 (antibody, V domains shown)
VH: B9 VH with A49S
VL: B9 VL with F87Y
notes: also called H10214 (11E7.C7 Humanized HC2) + L10214 (11E7.C7 Humanized LC2)
B11: humanized anti-tail monoclonal antibody, heavy chain SEQ ID NO: 6 and light chain SEQ ID NO: 11 (antibody, V domains shown)
VH: B9 VH with K13Q, G16R, A23T, S78I, R87K, A88T
VL: B9 VL with F87Y
notes: also called H10215 (11E7.C7 Humanized HC3) + L10214 (11E7.C7 Humanized LC2)
B12: humanized anti-tail monoclonal antibody, heavy chain SEQ ID NO: 5 and light chain SEQ ID NO: 10 (antibody, V domains shown)
VH: B9 VH with A49S
VL: B9 VL
notes: also called H10214 (11E7.C7 Humanized HC2) + L10213 (11E7.C7 Humanized LC1)
B13: humanized anti-tail monoclonal antibody, heavy chain SEQ ID NO: 4 and light chain SEQ ID NO: 11 (antibody, V domains shown)
VH: B9 VH
VL: B9 VL with F87Y
notes: also called H10213 (11E7.C7 Humanized HC1) + L10214 (11E7.C7 Humanized LC2)
B14: humanized anti-tail monoclonal antibody, heavy chain SEQ ID NO: 6 and light chain SEQ ID NO: 10 (antibody, V domains shown)
VH: B9 VH with K13Q, G16R, A23T, S78I, R87K, A88T
VL: B9 VL
notes: also called H10215 (11E7.C7 Humanized HC3) + L10213 (11E7.C7 Humanized LC1)
B15: humanized anti-tail monoclonal antibody, heavy chain SEQ ID NO: 4 and light chain SEQ ID NO: 12 (antibody, V domains shown)
VH: B9 VH
VL: DIVMTQSPATLSLSPGERATLSCRASQDISNYLNWYQQKPGQAVRLLIYYTSRLHSGIPARFSGSGSGTDYTLTISSLEPEDFAVYFCQQGNPLRTFGGGTKVEIKR
notes: also called H10213 (11E7.C7 Humanized HC1) + L10215 (11E7.C7 Humanized LC3)

Target: T1, tip-chimeric peptide IhfA5-mIhfB4NTHI
Test: direct ELISA #2, peptide coated (curves reaching equilibrium)

Binder	EC50
B1	0.0858 µg/mL
B2	0.111 µg/mL
B3	0.0704 µg/mL
B4	0.062 µg/mL
B5	0.0402 µg/mL
B6	0.0644 µg/mL
B7	0.055 µg/mL
B8	0.0453 µg/mL

Target: T2, native IHFNTHI (integration host factor …)
Test: SPR Biacore 3000, HuMab immobilized, IHFNTHI as analyte

Binder	Kd	koff	kon
B9	~5.6 nM	0.00043 s⁻¹	77000 M⁻¹ s⁻¹
B10	~4.4 nM	0.00061 s⁻¹	140000 M⁻¹ s⁻¹
B11	~14.8 nM	0.00068 s⁻¹	46000 M⁻¹ s⁻¹
B12	~3.6 nM	0.00057 s⁻¹	160000 M⁻¹ s⁻¹
B13	~5.3 nM	0.00053 s⁻¹	100000 M⁻¹ s⁻¹
B14	18 nM	0.00073 s⁻¹	25000 M⁻¹ s⁻¹

Target: T1, tip-chimeric peptide IhfA5-mIhfB4NTHI
Test: SPR Biacore 3000, HuMab immobilized, peptide as analyte

Binder	Kd	koff	kon
B1	29 nM	0.0016 s⁻¹	54000 M⁻¹ s⁻¹
B2	200 nM	0.0019 s⁻¹	9500 M⁻¹ s⁻¹
B3	76 nM	0.00034 s⁻¹	4500 M⁻¹ s⁻¹
B4	527 nM	0.00015 s⁻¹	280 M⁻¹ s⁻¹
B5	257 nM	7.7e-05 s⁻¹	300 M⁻¹ s⁻¹
B6	21 nM	0.00037 s⁻¹	17000 M⁻¹ s⁻¹
B7	152 nM	0.00038 s⁻¹	2500 M⁻¹ s⁻¹
B8	23 nM	7.4e-05 s⁻¹	3500 M⁻¹ s⁻¹

Target: T1, tip-chimeric peptide IhfA5-mIhfB4NTHI
Test: direct ELISA #1, peptide coated (curves not reaching equilibrium)

Binder	EC50
B1	0.075 µg/mL
B2	0.035 µg/mL
B3	0.06 µg/mL
B4	0.049 µg/mL
B5	0.055 µg/mL
B6	0.066 µg/mL
B7	0.032 µg/mL
B8	0.027 µg/mL

Target: T3, tail-chimeric peptide IhfA3-IhfB2NTHI
Test: as above

Binder	EC50
B9	0.01 µg/mL
B15	0.012 µg/mL
B10	0.014 µg/mL
B11	0.011 µg/mL
B12	0.007 µg/mL
B13	0.011 µg/mL
B14	0.013 µg/mL

Target: T1, tip-chimeric peptide IhfA5-mIhfB4NTHI
Test: SPR Biacore 3000, peptide immobilized, HuMab as analyte

Binder	Kd	koff	kon
B1	8 nM	0.0004 s⁻¹	48000 M⁻¹ s⁻¹
B2	3 nM	0.00021 s⁻¹	79000 M⁻¹ s⁻¹
B3	7 nM	0.00022 s⁻¹	31000 M⁻¹ s⁻¹
B4	144 nM	0.0026 s⁻¹	18000 M⁻¹ s⁻¹
B5	13 nM	0.00028 s⁻¹	22000 M⁻¹ s⁻¹
B6	0.3 nM	1.1e-05 s⁻¹	42000 M⁻¹ s⁻¹
B7	0.3 nM	1.3e-05 s⁻¹	40000 M⁻¹ s⁻¹
B8	4 nM	1.2e-05 s⁻¹	3700 M⁻¹ s⁻¹

Target: T3, tail-chimeric peptide IhfA3-IhfB2NTHI
Test: as above

Binder	Kd	koff	kon
B9	4.3 nM	0.00064 s⁻¹	150000 M⁻¹ s⁻¹
B15	5.1 nM	0.00056 s⁻¹	110000 M⁻¹ s⁻¹
B10	6.2 nM	0.00076 s⁻¹	120000 M⁻¹ s⁻¹
B11	1 nM	0.00016 s⁻¹	160000 M⁻¹ s⁻¹
B12	6.1 nM	0.00082 s⁻¹	130000 M⁻¹ s⁻¹
B13	4.9 nM	0.00068 s⁻¹	140000 M⁻¹ s⁻¹
B14	2.5 nM	0.00046 s⁻¹	180000 M⁻¹ s⁻¹

Target: T3, tail-chimeric peptide IhfA3-IhfB2NTHI
Test: direct ELISA #2, peptide coated (curves reaching equilibrium)

Binder	EC50
B9	0.0427 µg/mL
B15	0.0404 µg/mL
B10	0.0339 µg/mL
B11	0.028 µg/mL
B12	0.0367 µg/mL
B13	0.0408 µg/mL
B14	0.0274 µg/mL

Target: T3, tail-chimeric peptide IhfA3-IhfB2NTHI
Test: SPR Biacore 3000, HuMab immobilized, peptide as analyte

Binder	Kd	koff	kon
B9	29.6 nM	0.00033 s⁻¹	11000 M⁻¹ s⁻¹
B10	47 nM	0.00027 s⁻¹	5700 M⁻¹ s⁻¹
B11	67 nM	0.0013 s⁻¹	33000 M⁻¹ s⁻¹
B12	60 nM	0.00029 s⁻¹	4800 M⁻¹ s⁻¹
B13	62.2 nM	0.00027 s⁻¹	~4300 M⁻¹ s⁻¹
B14	72 nM	0.0013 s⁻¹	18000 M⁻¹ s⁻¹

Target: T2, native IHFNTHI (integration host factor …)
Test: SPR Biacore 3000, HuMab immobilized, IHFNTHI as analyte
Remark: another data set of the same source

Binder	Kd	koff	kon
B1	6 nM	0.0004 s⁻¹	66000 M⁻¹ s⁻¹
B2	1600 nM	0.0027 s⁻¹	1700 M⁻¹ s⁻¹
B3	10 nM	1.4e-05 s⁻¹	1400 M⁻¹ s⁻¹
B4	0.6 nM	0.0004 s⁻¹	640000 M⁻¹ s⁻¹
B5	9 nM	0.00059 s⁻¹	70000 M⁻¹ s⁻¹
B6	0.2 nM	0.00032 s⁻¹	1.4e+06 M⁻¹ s⁻¹
B7	0.6 nM	0.00037 s⁻¹	630000 M⁻¹ s⁻¹
B8	62 nM	0.00045 s⁻¹	7200 M⁻¹ s⁻¹

Target: T2, native IHFNTHI (integration host factor …)
Test: SPR Biacore 3000, IHFNTHI immobilized, HuMab as analyte

Binder	Kd	koff	kon
B1	825 nM	0.00011 s⁻¹	140 M⁻¹ s⁻¹
B2	3400 nM	0.016 s⁻¹	4600 M⁻¹ s⁻¹
B3	17 nM	9e-05 s⁻¹	5400 M⁻¹ s⁻¹
B4	4400 nM	0.0014 s⁻¹	–
B5	354 nM	0.00015 s⁻¹	420 M⁻¹ s⁻¹
B6	40 nM	0.006 s⁻¹	150000 M⁻¹ s⁻¹
B7	24 nM	0.16 s⁻¹	6.5e+06 M⁻¹ s⁻¹
B8	125 nM	0.0017 s⁻¹	–
